Measured values reported in patent publication US20230094162A1 (MacroGenics, published 2023).
Read-outs that look alike come from different tables or passages of the source.

Legend:
[1] = target: T1, CD137 expressed on the cell surface (CHO/CD137 cells) (UniProt Q07011 24-255, limits assumed); experiment: flow cytometry (FACS) on CHO cells expressing CD137, MFI
T1 construct: whole, on cells; also called cell surface CD137; Jurkat-NF-κB-Luc reporter cells overexpressing CD137

[2] = target: T2, PD-L1 expressed on the cell surface (CHO/PD-L1 cells) (UniProt Q9NZQ7 19-290); experiment: cell-based or functional assay
T2 sequence (Q9NZQ7 19-290): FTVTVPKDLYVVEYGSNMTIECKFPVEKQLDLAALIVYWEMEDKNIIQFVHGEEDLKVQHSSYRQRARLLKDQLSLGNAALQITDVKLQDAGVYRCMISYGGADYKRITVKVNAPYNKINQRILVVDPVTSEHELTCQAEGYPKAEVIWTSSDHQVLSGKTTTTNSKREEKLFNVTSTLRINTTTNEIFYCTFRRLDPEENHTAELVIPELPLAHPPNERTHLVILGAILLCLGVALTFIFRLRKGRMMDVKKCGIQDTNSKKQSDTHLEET

[3] = target: T2, PD-L1 expressed on the cell surface …; experiment: cell-based or functional assay; remark: listed apart in the source

T1 sequence (Q07011 24-255 limits assumed): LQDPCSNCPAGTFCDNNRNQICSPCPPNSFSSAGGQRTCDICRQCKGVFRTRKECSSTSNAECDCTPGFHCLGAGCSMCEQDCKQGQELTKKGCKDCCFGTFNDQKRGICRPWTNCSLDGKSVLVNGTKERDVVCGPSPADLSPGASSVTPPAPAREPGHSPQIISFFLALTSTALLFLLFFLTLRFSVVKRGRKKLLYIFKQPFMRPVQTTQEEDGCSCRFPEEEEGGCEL

B1: TRIDENT-A4 (bispecific antibody, human IgG1, kappa, L234A L235A)
chain 1: EIVMTQSPATLSLTPGERATLSCRASQSVSSNYLSWFQQIPGQAPRLLIYGASTRATGIPARFSGSGSGTDFTLTISSLQPEDFAVYYCQQDYDLPWTFGQGTKVEIKGGGSGGGGQVQLQESGPGLVKPSETLSLTCTVSGGSISSYYWSWIRQPPGKGLEWIGRIYTSGSTNYNPSLKSRVTMSVDTSKNQFSLKLSSVTAADTAVYYCARDGWYDEDYNYYGMDVWGQGTTVTVSSGGCGGGEVAALEKEVAALEKEVAALEKEVAALEKGGGDKTHTCPPCPAPEAAGGPSVFLFPPKPKDTLYITREPEVTCVVVDVSHEDPEVKFNWYVDGVEVHNAKTKPREEQYNSTYRVVSVLTVLHQDWLNGKEYKCKVSNKALPAPIEKTISKAKGQPREPQVYTLPPSREEMTKNQVSLWCLVKGFYPSDIAVEWESNGQPENNYKTTPPVLDSDGSFFLYSKLTVDKSRWQQGNVFSCSVMHEALHNHYTQKSLSLSPGK
chain 2: EIVMTQSPATLSLTPGERATLSCRASQSVSSNYLSWFQQIPGQAPRLLIYGASTRATGIPARFSGSGSGTDFTLTISSLQPEDFAVYYCQQDYDLPWTFGQGTKVEIKGGGSGGGGQVQLQESGPGLVKPSETLSLTCTVSGGSISSYYWSWIRQPPGKGLEWIGRIYTSGSTNYNPSLKSRVTMSVDTSKNQFSLKLSSVTAADTAVYYCARDGWYDEDYNYYGMDVWGQGTTVTVSSGGCGGGKVAALKEKVAALKEKVAALKEKVAALKE
heavy: EVQLVESGGGLVQPGGSLRLSCAASGFTFSSYTMSWVRQAPGKGLEWVAYISIKGGTTYYPDTVKGRFTISRDNAKNSLYLQMNSLRAEDTAVYYCARQGLPYYGDYWGQGTLVTVSSASTKGPSVFPLAPSSKSTSGGTAALGCLVKDYFPEPVTVSWNSGALTSGVHTFPAVLQSSGLYSLSSVVTVPSSSLGTQTYICNVNHKPSNTKVDKRVEPKSCDKTHTCPPCPAPEAAGGPSVFLFPPKPKDTLYITREPEVTCVVVDVSHEDPEVKFNWYVDGVEVHNAKTKPREEQYNSTYRVVSVLTVLHQDWLNGKEYKCKVSNKALPAPIEKTISKAKGQPREPQVYTLPPSREEMTKNQVSLSCAVKGFYPSDIAVEWESNGQPENNYKTTPPVLDSDGSFFLVSKLTVDKSRWQQGNVFSCSVMHEALHNRYTQKSLSLSPGK
light: DIQMTQSPSSLSASVGDRVTITCKASQDVNEAVAWYQQKPGKAPKLLIYWASTRHTGVPSRFSGSGSGTDFTLTISSLQPEDFATYYCQQHYNTPLTFGQGTKVEIKRTVAAPSVFIFPPSDEQLKSGTASVVCLLNNFYPREAKVQWKVDNALQSGNSQESVTEQDSKDSTYSLSSTLTLSKADYEKHKVYACEVTHQGLSSPVTKSFNRGEC
notes: Trivalent; two CD137 MAB-6(1.1) sites, one hPD-L1 MAB-2(3.2) site
- EC50 (read off the curve) [1]: ~0.01 µg/mL
- EC50 (read off the curve) [2]: ~0.4 µg/mL
- EC50 (read off the curve) [3]: ~0.2 µg/mL
